Measurements as given in US20140179594A1, “STREPTOCOCCUS BACTERIOPHAGE LYSINS FOR TREATMENT OF GRAM POSITIVE BACTERIA IN COMPANION ANIMALS AND LIVESTOCK” (priority 2011, published 2014).

Columns and labels:
[1] = system: purified S. suis peptidoglycan; experiment: PlySs2 bond specificity, mass spectroscopy of digest; type: biochemical, Streptococcus suis; conditions: overnight at 37° C.
Protocol: Investigations to determine the bond catalyzed by PlySs2 lysin have been undertaken. PlySs2 was incubated with purified S. suis peptidoglycan stripped of lipotechoic acid and carbohydrates overnight at 37° C. and the product submitted for mass spectroscopy.

[2] = system: S. aureus MW2 and 8325; experiment: Assessment of resistance, incrementally increasing concentrations; type: cell-based; conditions: concentration doubled daily up to 4× MIC over an 8-day period
[3] = system: S. suis strain 7997; experiment: PlySs2 lytic activity at various concentrations, OD600; type: cell-based, Streptococcus suis
Protocol: FIGS. 15A and 15B (A) PlySs2 has acute lytic activity against S. suis strain 7997 at, or above 8 ug/mL. (B) Activity of PlySs2 assessed in vitro against S. suis strain 5735.
(§1) Readings (OD600) were taken for each well in a spectrophotometer every minute over an hour. The OD density indicates the amount of bacterial cell growth in the microtiter well.
(§2) This activity test was first determined for the pathogenic S. suis strain 7997 with various concentrations of PlySs2 (FIG. 15A). Specific activity of purified PlySs2 lysin was also assessed in vitro against S. suis strain S735 (FIG. 15B). […] Additional results are tabulated below in TABLE 1.

[4] = system: cultures from the oral cavities of rats; experiment: Oral cavity microbiota study, clearing zones on lawns; type: cell-based; conditions: 6 cultures, 10 μL drops on BHI agar; the cleared culture confirmed as S. aureus
[5] = system: methicillin resistant Staphylococcus aureus strains (MRSA); experiment: PlySs2 in vitro growth reduction and killing; type: cell-based
Protocol: as §1, §2

[6] = system: vancomycin resistant Staphylococcus aureus (VRSA); experiment: PlySs2 in vitro test, standard MIC analysis; type: cell-based; conditions: comparable in vitro tests (FIG. 18)
Protocol: (§3) FIG. 18. PlySS2 was tested by standard MIC analysis for its ability to kill strains of staphylococci. Included in the testing were resistant staphylococci such as Vancomycin resistant (VRSA), Vancomycin intermediate (VISA) and methicillin resistant (MRSA) staphylococci. The three VRSA strains tested represent half of all known isolates.

[7] = system: vancomycin intermediate sensitivity Staphylococcus aureus (VISA); experiment: PlySs2 in vitro test, standard MIC analysis; type: cell-based; conditions: comparable in vitro tests (FIG. 18)
Protocol: as §3

[8] = system: S. suis strain 7997; experiment: PlySs2 biochemical characterization, OD600 turbidity
[9] = system: S. suis strain 7997; experiment: PlySs2 storage stability, killing effectiveness; type: physicochemical, Streptococcus suis
Protocol: FIG. 9. The stability of purified PlySS2 was determined by evaluating killing effectiveness against strain 7997 after storage at 37° C. for up to 48 hours in buffer.
FIG. 10. Killing effectiveness, assessed by OD600 growth of strain 7997 upon treatment with PlySs2 lysin after lysin storage at −80° C. for up to 7 months in buffer.
The stability of purified PlySs2 lysin was determined upon maintenance at 37° C. for up to 48 hours in buffer. The PlySs2 lysin is >90% stable up to 24 hours and maintains at least 50% activity after 48 hours.
Stability of the PlySS2 lysin was evaluated on freezer storage at −80° C. The PlySs2 lysin retains essentially 100% activity on storage in buffer for up to at least 7 months at −80° C. (FIG. 10).

B1: PlySs2: S. suis prophage lysin from strain 89/1591, amino acid sequence SEQ ID NO:3 (protein, listed as Streptococcus suis)
chain: MTTVNEALNNVRAQVGSGVSVGNGECYALASWYERMISPDATVGLGAGVGWVSGAIGDTISAKNIGSSYNWQANGWTVSTSGPFKAGQIVTLGATPGNPYGHVVIVEAVDGDRLTILEQNYGGKRYPVRNYYSAASYRQQVVHYITPPGTVAQSAPNLAGSRSYRETGTMTVTVDALNVRRAPNTSGEIVAVYKRGESFDYDTVIIDVNGYVWVSYIGGSGKRNYVATGATKDGKRFGNAWGTFK
bond catalyzed (cleavage type) [1]: N-acetylmuramoyl,-L-alanine amidase
development of resistance (4-fold increase in MIC) [2]: Neither S. aureus strain developed resistance
concentration with acute lytic activity [3]: ≥ 8 µg/mL
clearing zone around PlySs2 drops on lawns of rat oral cavity cultures [4]: only appeared on one culture
activity against MRSA strains [5]: reduction in growth and killing
effectiveness against VRSA strains [6]: similarly effective
effectiveness against VISA strains [7]: similarly effective
NaCl concentration of greatest activity ([8]; S. suis strain 7997): 0 mM
pH up to which acute activity is shown ([8]; S. suis strain 7997, Bis-tris propane (BTP) buffer): ≤ 9.7
pH of strongest activity (optimal pH) ([8]; S. suis strain 7997, phosphate/citrate buffer): 8.0
activity maintained ([9]; 37° C. in buffer, after 48 hours): at least 50%
stability of purified lysin ([9]; 37° C. in buffer, up to 24 hours): > 90%
activity retained on freezer storage ([9]; −80° C. in buffer, up to at least 7 months): ~100%
